Results from publication PMC8885419, “Identification and mechanism of G protein-biased ligands for chemokine receptor CCR1” (Nature Chemical Biology, 2021).

T1: wild-type full-length human CCR1 fused with LgBiT at the C terminus (cryo-EM construct) (human, UniProt P32246 1-355)
T1 construct: chemokine receptor CCR1, human, wild type, full length; Expressed with a chemokine (CCL15 (26–92), CCL15 (27–92), or CCL3 (4–69) for the apo complex) fused to its N terminus by a GS linker with a TEV site; the linker was cut with TEV protease and 2*MBP removed with 3C protease; Also used here as the target of the functional rows on wild-type CCR1 in cells, whose construct for the G protein …
T1 sequence (looked up): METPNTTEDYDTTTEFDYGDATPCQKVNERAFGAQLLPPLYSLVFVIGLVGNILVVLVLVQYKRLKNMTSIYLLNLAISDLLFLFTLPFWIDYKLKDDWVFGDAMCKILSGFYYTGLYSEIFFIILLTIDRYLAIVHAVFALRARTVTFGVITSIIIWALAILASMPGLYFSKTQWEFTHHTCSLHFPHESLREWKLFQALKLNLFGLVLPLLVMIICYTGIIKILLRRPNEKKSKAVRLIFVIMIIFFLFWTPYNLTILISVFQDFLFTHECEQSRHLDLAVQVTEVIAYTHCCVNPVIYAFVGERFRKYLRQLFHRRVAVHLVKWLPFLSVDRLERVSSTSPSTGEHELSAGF


What was measured:
[1] = biological target: β-arrestin2 (βarr2); experiment: β-arrestin2 recruitment dose-response (method not named for this panel; panel d of the same figure is NanoBiT); settings: agonist CCL15M (CCL15 27-92) at 1e-6 M (highest dose); parent: est. 100; read off a plot
[2] = biological target: T1, wild-type full-length human CCR1 fused …; experiment: cryo-EM structure; CCL15-bound CCR1–Gi complexes (CCL15^L, CCL15^M); chemokine expressed fused to CCR1 and cut with TEV; co-expressed with Gi in SF9; NanoBiT tethering of CCR1-LgBiT and Gβ1-SmBiT; scFv16 added; 20 mM HEPES pH 7.5, 100 mM NaCl, LMNG/CHS/GDN; settings: both partners purified

percent of parent (% wild-type/CCL15M max) [1] | binding result [2] | Molecule
81 | – | CCR1 (1–327 aa) with LgBiT at the C terminal (from UniProt P32246) T86A; W90A
85 | – | CCR1 (1–327 aa) with LgBiT at the C terminal (from UniProt P32246) Y113F; Y255F
– | binds | CCL15 (26–92) (ligand, human, UniProt Q16663 47-113, looked up, chemokine CCL15, human, residues 26–92 of CCL15 (1–92), first residue F26; also called CCL15^L; long form CCL15; source: SF9 insect cells, expressed fused to the N terminus of CCR1, cut with TEV protease, purified in the complex) FHFAADCCTSYISQSIPCSLMKSYFETSSECSKPGVIFLTKKGRQVCAKPSGPGVQDCMKKLKPYSI
– | binds | CCL15 (27–92) (ligand, human, UniProt Q16663 48-113, looked up, chemokine CCL15, human, residues 27–92 of CCL15 (1–92); In the cryo-EM sample residues of the GS/TEV linker may remain at the C terminus; also called CCL15^M; medium form CCL15; source: SF9 insect cells, expressed fused to the N terminus of CCR1, cut with TEV protease, purified in the complex) HFAADCCTSYISQSIPCSLMKSYFETSSECSKPGVIFLTKKGRQVCAKPSGPGVQDCMKKLKPYSI
